The test system of this data set is Escherichia coli TOP10. Briefly: shrunken log2 fold change of peptide-encoding DNA abundance (4.5 h post-induction vs induction); higher = less antimicrobial activity (less host growth inhibition). Conditions: time post-induction: 4.5 h; library: site-saturation at positions 5, 18, 19, 20.
For RRIRYRPPRLPRPRPRPLYTPRP, the “shrunken log2 fold change” value was -0.795. RRIRRRPPRLPRPRPRPLMAPRP: the “shrunken log2 fold change” value is 0.312. Next, RRIRIRPPRLPRPRPRPFNMPRP: -2.55. On to RRIRRRPPRLPRPRPRPTTSPRP, for which the “shrunken log2 fold change” value was 0.591.

Turning to RRIRLRPPRLPRPRPRPNESPRP, the “shrunken log2 fold change” value was -0.00771. Consider RRIRCRPPRLPRPRPRPMAEPRP, for which the “shrunken log2 fold change” value was determined as 0.331. Take RRIRVRPPRLPRPRPRPCSYPRP: the “shrunken log2 fold change” value is -0.0326. With RRIRTRPPRLPRPRPRPWASPRP the figure was -0.068; with RRIRWRPPRLPRPRPRPQQVPRP, -0.00531.

For RRIRIRPPRLPRPRPRPHMRPRP, the “shrunken log2 fold change” value was determined as 0.128. On to RRIRHRPPRLPRPRPRPTASPRP, for which the “shrunken log2 fold change” value is -0.131.

Regarding RRIRKRPPRLPRPRPRPHGPPRP, the “shrunken log2 fold change” value was 0.0129.

Turning to RRIRNRPPRLPRPRPRPQLQPRP, the “shrunken log2 fold change” value was -0.0979.

As to RRIRNRPPRLPRPRPRPMMPPRP, the “shrunken log2 fold change” value is -0.0635. Take RRIRQRPPRLPRPRPRPGAAPRP: the “shrunken log2 fold change” value came to 0.553. Consider RRIRFRPPRLPRPRPRPRRFPRP, for which the “shrunken log2 fold change” value stood at 0.0577.

Regarding RRIRIRPPRLPRPRPRPHTMPRP, the “shrunken log2 fold change” value is -0.776. For the sequence RRIRHRPPRLPRPRPRPAVIPRP, the “shrunken log2 fold change” value is -0.0639. With RRIRKRPPRLPRPRPRPGHYPRP the figure was 0.0236; with RRIRWRPPRLPRPRPRPHYGPRP, -0.0711.

As for RRIRRRPPRLPRPRPRPTTWPRP, the “shrunken log2 fold change” value stood at 0.28. RRIRIRPPRLPRPRPRPPCIPRP: the “shrunken log2 fold change” value was -0.0558.

Regarding RRIRPRPPRLPRPRPRPTQNPRP, the “shrunken log2 fold change” value amounted to 0.534. With RRIRCRPPRLPRPRPRPLIPPRP the figure was -0.366; with RRIRFRPPRLPRPRPRPFQFPRP, -0.253; with RRIRYRPPRLPRPRPRPHCYPRP, -0.426. Take RRIRTRPPRLPRPRPRPILNPRP: the “shrunken log2 fold change” value was -0.403. On to RRIRQRPPRLPRPRPRPWTKPRP, for which the “shrunken log2 fold change” value was -0.00887. Take RRIRGRPPRLPRPRPRPPVNPRP: the “shrunken log2 fold change” value was 0.55. Turning to RRIRNRPPRLPRPRPRPEIVPRP, the “shrunken log2 fold change” value worked out at 0.106.

For RRIRFRPPRLPRPRPRPRAVPRP, the “shrunken log2 fold change” value came out at 0.475.

Turning to RRIRRRPPRLPRPRPRPMRCPRP, the “shrunken log2 fold change” value is 0.384. Consider RRIRNRPPRLPRPRPRPPEIPRP, for which the “shrunken log2 fold change” value is -0.169. With RRIRCRPPRLPRPRPRPMLSPRP, the “shrunken log2 fold change” value was -0.202. On to RRIRSRPPRLPRPRPRPKNDPRP, for which the “shrunken log2 fold change” value was -0.372. In the case of RRIRSRPPRLPRPRPRPHRLPRP, the “shrunken log2 fold change” value was -0.288.

Regarding RRIRHRPPRLPRPRPRPAENPRP, the “shrunken log2 fold change” value was -0.0113. Turning to RRIRSRPPRLPRPRPRPCMTPRP, the “shrunken log2 fold change” value was -0.102. Take RRIRKRPPRLPRPRPRPELKPRP: the “shrunken log2 fold change” value was 0.978. In the case of RRIRFRPPRLPRPRPRPEFVPRP, the “shrunken log2 fold change” value was 0.0629. For RRIRGRPPRLPRPRPRPACQPRP, the “shrunken log2 fold change” value was 0.883. Regarding RRIRARPPRLPRPRPRPADTPRP, the “shrunken log2 fold change” value was determined as 0.0859. On to RRIRARPPRLPRPRPRPGSPPRP, for which the “shrunken log2 fold change” value stood at 0.394. Take RRIRKRPPRLPRPRPRPVECPRP: the “shrunken log2 fold change” value came to 0.22.

Take RRIRPRPPRLPRPRPRPLLKPRP: the “shrunken log2 fold change” value came to 0.593. Next, RRIRTRPPRLPRPRPRPPNLPRP: 0.0303; RRIRARPPRLPRPRPRPNWTPRP: 0.0524. With RRIRRRPPRLPRPRPRPLAKPRP, the “shrunken log2 fold change” value is 0.571.

RRIRFRPPRLPRPRPRPVSLPRP: the “shrunken log2 fold change” value was -0.00718.

In the case of RRIRTRPPRLPRPRPRPDNMPRP, the “shrunken log2 fold change” value is -0.909. Take RRIRHRPPRLPRPRPRPCRVPRP: the “shrunken log2 fold change” value is -0.242. For RRIRPRPPRLPRPRPRPWDEPRP, the “shrunken log2 fold change” value is -0.151.

Take RRIRHRPPRLPRPRPRPMTTPRP: the “shrunken log2 fold change” value was -0.125. As for RRIRARPPRLPRPRPRPDHSPRP, the “shrunken log2 fold change” value worked out at 0.0675. With RRIRWRPPRLPRPRPRPVQEPRP, the “shrunken log2 fold change” value came to 0.342. For RRIRHRPPRLPRPRPRPTWHPRP, the “shrunken log2 fold change” value was -0.073.

With RRIRARPPRLPRPRPRPLSQPRP, the “shrunken log2 fold change” value came to 0.263. For RRIRGRPPRLPRPRPRPHCPPRP, the “shrunken log2 fold change” value was 0.084. For the sequence RRIRLRPPRLPRPRPRPEHWPRP, the “shrunken log2 fold change” value is 0.4.

For the sequence RRIRHRPPRLPRPRPRPEEWPRP, the “shrunken log2 fold change” value was 0.0893.

In the case of RRIRDRPPRLPRPRPRPYEFPRP, the “shrunken log2 fold change” value was 0.047. RRIRNRPPRLPRPRPRPRSAPRP: the “shrunken log2 fold change” value came to 0.0888.

With RRIRDRPPRLPRPRPRPWYHPRP, the “shrunken log2 fold change” value is -0.0258. For the sequence RRIRQRPPRLPRPRPRPAYAPRP, the “shrunken log2 fold change” value was -0.189. With RRIRLRPPRLPRPRPRPQTNPRP, the “shrunken log2 fold change” value was -0.497. Regarding RRIRERPPRLPRPRPRPLKGPRP, the “shrunken log2 fold change” value was 0.176. With RRIRLRPPRLPRPRPRPANWPRP, the “shrunken log2 fold change” value worked out at 0.0804.

For RRIRDRPPRLPRPRPRPYLKPRP, the “shrunken log2 fold change” value was -0.443. Consider RRIRSRPPRLPRPRPRPNMSPRP, for which the “shrunken log2 fold change” value is -0.315. Take RRIRGRPPRLPRPRPRPKQQPRP: the “shrunken log2 fold change” value turned out to be 0.228. Take RRIRCRPPRLPRPRPRPFYSPRP: the “shrunken log2 fold change” value was -0.507.

For RRIRLRPPRLPRPRPRPHHEPRP, the “shrunken log2 fold change” value turned out to be 0.0418. For RRIRVRPPRLPRPRPRPRKVPRP, the “shrunken log2 fold change” value is -0.0445. With RRIRRRPPRLPRPRPRPDGKPRP, the “shrunken log2 fold change” value amounted to 0.0432. For the sequence RRIRARPPRLPRPRPRPFTIPRP, the “shrunken log2 fold change” value was -0.142. Regarding RRIRWRPPRLPRPRPRPNTKPRP, the “shrunken log2 fold change” value is -0.187.

As for RRIRPRPPRLPRPRPRPAMDPRP, the “shrunken log2 fold change” value was determined as 0.0161. Take RRIRERPPRLPRPRPRPLWMPRP: the “shrunken log2 fold change” value stood at 0.00675. Take RRIRHRPPRLPRPRPRPDCEPRP: the “shrunken log2 fold change” value was -0.0807. Turning to RRIRARPPRLPRPRPRPTHNPRP, the “shrunken log2 fold change” value is 0.523. Next, RRIRCRPPRLPRPRPRPYDMPRP: -0.726; RRIRCRPPRLPRPRPRPQIHPRP: -0.548. In the case of RRIRSRPPRLPRPRPRPGQMPRP, the “shrunken log2 fold change” value came out at 0.206. For the sequence RRIRERPPRLPRPRPRPWRHPRP, the “shrunken log2 fold change” value is -0.0998. Next, RRIRHRPPRLPRPRPRPKRDPRP: 0.158; RRIRMRPPRLPRPRPRPVEEPRP: 0.292; RRIRARPPRLPRPRPRPPFGPRP: 0.436. Turning to RRIRCRPPRLPRPRPRPAAVPRP, the “shrunken log2 fold change” value was found to be 0.346. In the case of RRIRGRPPRLPRPRPRPGAKPRP, the “shrunken log2 fold change” value came to 0.924. As for RRIRLRPPRLPRPRPRPVCTPRP, the “shrunken log2 fold change” value is -0.0517. For RRIRRRPPRLPRPRPRPTTNPRP, the “shrunken log2 fold change” value is 0.338.

As for RRIRSRPPRLPRPRPRPALHPRP, the “shrunken log2 fold change” value stood at 0.16. For RRIRVRPPRLPRPRPRPGFIPRP, the “shrunken log2 fold change” value was -0.202.

Consider RRIRERPPRLPRPRPRPPSAPRP, for which the “shrunken log2 fold change” value is 0.632. Take RRIRWRPPRLPRPRPRPIQGPRP: the “shrunken log2 fold change” value turned out to be 0.265. RRIRCRPPRLPRPRPRPFDPPRP: the “shrunken log2 fold change” value was -0.0744. RRIRTRPPRLPRPRPRPGFAPRP: the “shrunken log2 fold change” value is 0.33. On to RRIRNRPPRLPRPRPRPHETPRP, for which the “shrunken log2 fold change” value is -0.127.

As to RRIRTRPPRLPRPRPRPVEFPRP, the “shrunken log2 fold change” value came to 0.0128.

RRIRLRPPRLPRPRPRPDSNPRP: the “shrunken log2 fold change” value is -0.0277. Next, RRIRTRPPRLPRPRPRPDPMPRP: -0.0555; RRIRIRPPRLPRPRPRPQWHPRP: -0.381. For RRIRLRPPRLPRPRPRPHGVPRP, the “shrunken log2 fold change” value is -0.0127. Turning to RRIRWRPPRLPRPRPRPDTCPRP, the “shrunken log2 fold change” value was -0.0059. Take RRIRFRPPRLPRPRPRPLDCPRP: the “shrunken log2 fold change” value is -0.112. For the sequence RRIRFRPPRLPRPRPRPECAPRP, the “shrunken log2 fold change” value stood at 0.724. On to RRIRERPPRLPRPRPRPKHFPRP, for which the “shrunken log2 fold change” value is -0.248. Next, RRIRIRPPRLPRPRPRPWTWPRP: -0.204.

Turning to RRIRMRPPRLPRPRPRPDYHPRP, the “shrunken log2 fold change” value is -0.457.

With RRIRERPPRLPRPRPRPPMRPRP, the “shrunken log2 fold change” value was found to be 0.779.

Regarding RRIRPRPPRLPRPRPRPDNHPRP, the “shrunken log2 fold change” value is -0.521. For the sequence RRIRQRPPRLPRPRPRPEWSPRP, the “shrunken log2 fold change” value came to 0.0925. Consider RRIRIRPPRLPRPRPRPQGCPRP, for which the “shrunken log2 fold change” value is -0.00156. Consider RRIRPRPPRLPRPRPRPDIAPRP, for which the “shrunken log2 fold change” value was -0.0378. With RRIRQRPPRLPRPRPRPNMAPRP, the “shrunken log2 fold change” value is -0.173.

Take RRIRVRPPRLPRPRPRPGEQPRP: the “shrunken log2 fold change” value is -0.0154.

As to RRIRERPPRLPRPRPRPGRYPRP, the “shrunken log2 fold change” value is -0.443. Consider RRIRMRPPRLPRPRPRPSKWPRP, for which the “shrunken log2 fold change” value was -0.104. RRIRHRPPRLPRPRPRPDQRPRP: the “shrunken log2 fold change” value was -0.00114. On to RRIRYRPPRLPRPRPRPACNPRP, for which the “shrunken log2 fold change” value is -0.238.

With RRIRYRPPRLPRPRPRPTDIPRP, the “shrunken log2 fold change” value was -0.031. On to RRIRCRPPRLPRPRPRPPFWPRP, for which the “shrunken log2 fold change” value was found to be 0.649.

Take RRIRSRPPRLPRPRPRPYRNPRP: the “shrunken log2 fold change” value is -0.254. Turning to RRIRCRPPRLPRPRPRPLMKPRP, the “shrunken log2 fold change” value was -0.275. In the case of RRIRTRPPRLPRPRPRPRGPPRP, the “shrunken log2 fold change” value was 1.02.

For the origin of these results see the supplement of paper PMC9112550, “Optimization of the antimicrobial peptide Bac7 by deep mutational scanning” (BMC Biology, 2022).
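Also: peptides expressed intracellularly from a pBAD plasmid library in pooled LB shake-flask culture, induced with 0.3% L-arabinose, DNA abundance read by NGS, three biological replicates, DESeq2 with apeglm shrinkage.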
